Source: US20040248211A1 (published 2004)

Key:
[1] = biological target: T1, LFA-1 (CD11a/CD18) on cells (human, UniProt P20701 26-1170; P05107 23-769); assay: JY cell adhesion to plate-bound chimera
T1 construct: whole, on cells; On SKW3, JY, HL-60 cells, neutrophils and transfected CHO and COS cells; also called CD18/CD11a

[2] = biological target: CD18-independent counter-receptor for ICAM-R on Jurkat cells; assay: Jurkat cell adhesion to plate-bound shICAM-R, peptide 1-2 mg/ml
[3] = biological target: T2, VLA-4 (alpha4/beta1) on cells (UniProt P13612 34-1032; P05556 21-798, limits assumed); assay: adhesion of transfected COS cells to immobilized chimera (20 ug/ml coat)
T2 construct: whole, on cells; On Jurkat cells, T cells and COS cells transfected with alpha4 and beta1 cDNAs; also called α4/β1; α4β1

T1 sequence (P20701 26-1170, chain 1 of 2): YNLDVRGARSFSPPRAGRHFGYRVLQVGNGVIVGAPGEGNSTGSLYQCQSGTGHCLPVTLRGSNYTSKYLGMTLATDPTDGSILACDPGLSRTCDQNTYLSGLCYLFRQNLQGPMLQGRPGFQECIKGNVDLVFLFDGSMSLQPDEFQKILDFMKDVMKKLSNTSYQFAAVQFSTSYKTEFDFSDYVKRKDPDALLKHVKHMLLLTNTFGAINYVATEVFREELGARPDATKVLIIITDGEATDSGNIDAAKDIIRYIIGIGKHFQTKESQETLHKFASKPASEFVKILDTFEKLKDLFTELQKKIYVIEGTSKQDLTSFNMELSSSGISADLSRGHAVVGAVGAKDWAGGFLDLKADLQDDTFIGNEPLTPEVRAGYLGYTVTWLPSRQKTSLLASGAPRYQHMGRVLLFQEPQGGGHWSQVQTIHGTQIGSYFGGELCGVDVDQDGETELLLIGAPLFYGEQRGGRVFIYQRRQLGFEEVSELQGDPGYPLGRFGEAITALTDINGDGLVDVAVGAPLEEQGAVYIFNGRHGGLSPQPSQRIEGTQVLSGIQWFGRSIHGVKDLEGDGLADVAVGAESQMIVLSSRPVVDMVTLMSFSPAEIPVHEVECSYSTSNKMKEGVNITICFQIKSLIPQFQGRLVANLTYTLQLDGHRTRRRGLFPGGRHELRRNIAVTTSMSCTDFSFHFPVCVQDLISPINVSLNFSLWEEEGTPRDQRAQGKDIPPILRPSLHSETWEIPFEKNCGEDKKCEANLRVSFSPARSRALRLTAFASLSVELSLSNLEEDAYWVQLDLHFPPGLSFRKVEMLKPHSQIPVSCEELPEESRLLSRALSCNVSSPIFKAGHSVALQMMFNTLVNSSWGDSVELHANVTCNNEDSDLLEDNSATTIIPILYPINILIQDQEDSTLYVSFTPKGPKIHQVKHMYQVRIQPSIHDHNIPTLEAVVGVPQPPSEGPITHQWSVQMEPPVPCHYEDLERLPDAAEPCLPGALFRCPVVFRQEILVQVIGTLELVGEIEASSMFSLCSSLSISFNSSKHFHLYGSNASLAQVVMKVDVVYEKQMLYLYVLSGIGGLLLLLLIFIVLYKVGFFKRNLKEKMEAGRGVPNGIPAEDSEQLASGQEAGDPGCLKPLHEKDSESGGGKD
T1 sequence (P05107 23-769, chain 2 of 2): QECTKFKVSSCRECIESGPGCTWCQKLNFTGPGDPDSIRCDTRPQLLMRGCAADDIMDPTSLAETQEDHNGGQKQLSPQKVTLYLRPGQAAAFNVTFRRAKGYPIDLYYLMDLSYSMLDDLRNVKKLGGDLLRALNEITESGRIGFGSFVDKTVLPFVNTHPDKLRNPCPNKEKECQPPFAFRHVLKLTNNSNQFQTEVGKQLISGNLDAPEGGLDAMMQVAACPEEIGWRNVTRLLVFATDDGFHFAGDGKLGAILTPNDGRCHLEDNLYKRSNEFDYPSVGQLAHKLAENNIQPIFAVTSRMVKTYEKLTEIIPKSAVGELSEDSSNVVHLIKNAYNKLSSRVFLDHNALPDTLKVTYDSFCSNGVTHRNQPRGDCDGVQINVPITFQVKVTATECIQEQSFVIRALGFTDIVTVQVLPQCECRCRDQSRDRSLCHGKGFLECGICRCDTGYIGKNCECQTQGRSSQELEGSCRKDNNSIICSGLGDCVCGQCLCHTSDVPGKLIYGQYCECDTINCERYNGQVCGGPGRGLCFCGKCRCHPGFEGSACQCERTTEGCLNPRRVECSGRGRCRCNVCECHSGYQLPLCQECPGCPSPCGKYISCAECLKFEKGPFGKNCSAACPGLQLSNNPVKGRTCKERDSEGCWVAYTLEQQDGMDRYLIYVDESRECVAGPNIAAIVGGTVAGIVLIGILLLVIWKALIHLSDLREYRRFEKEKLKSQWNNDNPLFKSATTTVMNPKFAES

B1: ICAM-R/IgG chimera with domain 3 deleted (Fc fusion)
chain: QEFLLRVEPQNPVLSAGGSLFVNCSTDCPSSEKIALETSLSKELVASGMGWAAFNLSNVTGNSRILCSVYCNGSQITGSSNITVYGLPERVELAPLPPWQPVGQNFTLRCQVEGGSPRTSLTVVLLRWEEELSRQPAVEEPAEVTATVLASRDDHGAPFSCRTELDMQPQGLGLFVNTSAPRQLRTFLGPIVNLSEPTAHEGSTVTVSCMAGARVQVTLDGVPAAAPGQTAQLQLNATESDDGRSFFCSATLEVDGEFLHRNSSVQLRVLYGPKIDRATCPQHLKWKDKTRHVLQCQARGNPYPELRCLKEGSSREVPVGIPFFVNVTHNGTYQCQASSSRGKYTLVVVMDIEAFSSH
notes: also called domain 3 deletion chimera; not shown: human IgG1 hinge, CH2 and CH3
B1: binds [1].

GDQRL (also called ICAM-1 228-232) [ICAM-1 domain 3 peptide GDQRL, residues 228-232] was tested, and the “% Inhibition of cell binding to shICAM-R” value [2] was 22%.

With EKIALET (also called ICAM-R 32-38) [ICAM-R domain 1 peptide, residues 32-38] the “% Inhibition of cell binding to shICAM-R” value [2] was 10%.

B2: ICAM-1/IgG chimera (Fc fusion, UniProt P05362 28-480, looked up, not shown: a dimerising Fc or GST)
chain: QTSVSPSKVILPRGGSVLVTCSTSCDQPKLLGIETPLPKKELLLPGNNRKVYELSNVQEDSQPMCYSNCPDGQSTAKTFLTVYWTPERVELAPLPSWQPVGKNLTLRCQVEGGAPRANLTVVLLRGEKELKREPAVGEPAEVTTTVLVRRDHHGANFSCRTELDLRPQGLELFENTSAPYQLQTFVLPATPPQLVSPRVLEVDTQGTVVCSLDGLFPVSEAQVHLALGDQRLNPTVTYGNDSFSAKASVSVTAEDEGTQRLTCAVILGNQSQETLQTVTIYSFPAPNVILTKPEVSEGTEVTVKCEAHPRAKVTLNGVPAQPLGPRAQLLLKATPEDNGRSFSCSATLEVAGQLIHKNQTRELRVLYGPRLDERDCPGNWTWPENSQQTPMCQAWGNPLPELKCLKDGTFPLPIGESVTVTRDLEGTYLCRARSTQGEVTRKVTVNVLSPRYE
notes: also called ICAM-1/Ig fusion protein
B2: no binding [3].

GDQML (also called ICAM-R 230-234) [ICAM-R domain 3 peptide GDQML, residues 230-234] was tested, and the “% Inhibition of cell binding to shICAM-R” value [2] was 36%.

With NGSQI (also called ICAM-R 72-76) [ICAM-R domain 1 peptide NGSQI, residues 72-76] the “% Inhibition of cell binding to shICAM-R” value [2] was 17%.

In the case of DGQST (also called ICAM-1 70-74) [ICAM-1 domain 1 peptide DGQST, residues 70-74], the “% Inhibition of cell binding to shICAM-R” value [2] is reported as 9%.

In the case of GERREA (also called ICAM-R 271-276) [ICAM-R domain 3 peptide, residues 271-276], the “% Inhibition of cell binding to shICAM-R” value [2] is reported as 11%.
